Reference: article PMC4682653

Test system: UvrY-His6 phosphorylated (UvrY-P) (Escherichia coli MG1655)
Test: EMSA
Conditions: in vitro phosphorylated; 20 mM Tris-HCl pH 7.5, 10% glycerol, 50 mM KCl, 3 mM MgCl2, 1 mM DTT, 100 ug/mL BSA, 0.5 nM DNA, 30 min at 37 C (Fig 3 legend: room temperature)

Substance	binding signal (fold affinity vs non-phosphorylated UvrY)
csrB EMSA probe (-246 to +49)	2
csrC EMSA probe (-247 to +56)	2
